According to the Human Domainome abundance scans (Beltran et al. 2025):
± gives the uncertainty stated by the source.

B1: WW domain-containing transcription regulator protein 1, residues 116 to 162; numbered along this chain, Q9GZV5 (parent)
chain: QSYDVTDELPLPPGWEMTFTATGQRYFLNHIEKITTWQDPRKAMNQP

Variants of: B1
Assay: abundance fitness (aPCA) (normalised: wild type 0, dead -1); higher = more abundant; growth selection in yeast, the domain comes from the species named
Conditions: Homo sapiens

| Variant | abundance fitness |
| --- | --- |
| G23P | -0.827 ± 0.047 |
| G23S | -0.565 ± 0.032 |
| G23V | -0.925 ± 0.042 |
| G23F | -1.15 ± 0.23 |
| G23M | -0.875 ± 0.079 |
| G23H | -0.476 ± 0.064 |
| G23R | -0.369 ± 0.029 |
| G23C | -0.79 ± 0.031 |
| G23T | -0.918 ± 0.073 |
| G23W | -0.964 ± 0.054 |
| G23Q | -0.469 ± 0.059 |
| G23L | -1.07 ± 0.098 |
| G23I | -0.917 ± 0.12 |
| G23D | -0.361 ± 0.048 |
| G23K | -0.412 ± 0.061 |
| N29T | -0.847 ± 0.051 |
| N29I | -0.949 ± 0.031 |
| N29D | -0.42 ± 0.066 |
| N29Q | -0.779 ± 0.061 |
| N29C | -1.04 ± 0.13 |
| N29F | -1.01 ± 0.082 |
| N29V | -1.09 ± 0.036 |
| N29A | -0.919 ± 0.041 |
| N29W | -0.965 ± 0.093 |

| Variant | abundance fitness |
| --- | --- |
| N29K | -0.826 ± 0.052 |
| N29L | -1.01 ± 0.035 |
| N29E | -0.931 ± 0.063 |
| N29R | -0.763 ± 0.048 |
| N29S | -0.357 ± 0.035 |
| N29M | -1.02 ± 0.046 |
| N29H | -0.278 ± 0.071 |
| N29P | -1.11 ± 0.13 |
| R25H | -0.385 ± 0.069 |
| R25M | -0.232 ± 0.054 |
| R25K | -0.016 ± 0.044 |
| R25Q | -0.116 ± 0.033 |
| R25D | -0.934 ± 0.13 |
| R25Y | -0.246 ± 0.065 |
| R25T | -0.295 ± 0.051 |
| R25N | -0.448 ± 0.074 |
| R25A | -0.261 ± 0.05 |
| R25F | -0.451 ± 0.073 |
| R25S | -0.203 ± 0.04 |
| R25E | -0.26 ± 0.04 |
| R25G | -0.37 ± 0.03 |
| R25I | -0.024 ± 0.057 |
| R25W | -0.64 ± 0.031 |
| T22Y | -0.422 ± 0.061 |

| Variant | abundance fitness |
| --- | --- |
| T22P | -0.557 ± 0.043 |
| T22A | -0.092 ± 0.031 |
| T22N | -0.086 ± 0.041 |
| T22M | -0.277 ± 0.05 |
| T22W | -0.357 ± 0.034 |
| T22L | -0.192 ± 0.034 |
| T22D | 0.104 ± 0.032 |
| T22C | -0.033 ± 0.034 |
| T22S | -0.058 ± 0.033 |
| T22K | -0.087 ± 0.034 |
| T22Q | -0.141 ± 0.045 |
| T22E | -0.028 ± 0.031 |
| T22V | -0.37 ± 0.029 |
| T22G | -0.052 ± 0.024 |
| T22H | -0.184 ± 0.035 |
| T22F | -0.35 ± 0.045 |
| T20K | -0.873 ± 0.13 |
| T20Y | -0.796 ± 0.038 |
| T20C | -0.356 ± 0.029 |
| T20N | -0.081 ± 0.054 |
| T20P | -0.937 ± 0.13 |
| T20Q | -0.924 ± 0.15 |
| T20G | -0.381 ± 0.03 |
| T20L | -0.519 ± 0.045 |

| Variant | abundance fitness |
| --- | --- |
| T20M | -0.295 ± 0.076 |
| T20R | -0.65 ± 0.041 |
| T20A | -0.287 ± 0.036 |
| T20S | -0.115 ± 0.041 |
| T20W | -1 ± 0.052 |
| T20H | -0.451 ± 0.041 |
| T20E | -0.387 ± 0.054 |
| T18Q | 0.045 ± 0.051 |
| T18D | -0.018 ± 0.034 |
| T18G | 0.018 ± 0.028 |
| T18W | -0.245 ± 0.036 |
| T18Y | -0.086 ± 0.051 |
| T18V | -0.035 ± 0.035 |
| T18R | 0.094 ± 0.031 |
| T18L | -0.047 ± 0.037 |
| T18M | -0.056 ± 0.046 |
| T18N | -0.159 ± 0.053 |
| T18C | -0.009 ± 0.036 |
| T18P | -0.85 ± 0.081 |
| T18E | -0.064 ± 0.03 |
| T18K | 0.097 ± 0.031 |
| T18S | 0.05 ± 0.034 |
| T18A | 0.023 ± 0.037 |
| F19I | 0.023 ± 0.065 |

| Variant | abundance fitness |
| --- | --- |
| F19G | -0.425 ± 0.027 |
| F19C | -0.274 ± 0.066 |
| F19V | -0.054 ± 0.032 |
| F19P | -0.597 ± 0.033 |
| F19L | -0.115 ± 0.031 |
| F19S | -0.106 ± 0.041 |
| F19K | -0.047 ± 0.045 |
| F19A | -0.06 ± 0.03 |
| F19D | -0.319 ± 0.046 |
| F19E | -0.017 ± 0.03 |
| F19H | -0.385 ± 0.13 |
| F19R | -0.089 ± 0.032 |
| F19Y | -0.082 ± 0.042 |
| F19W | -0.021 ± 0.027 |
| F19Q | -0.121 ± 0.051 |
| F19M | -0.185 ± 0.047 |
| F19T | -0.108 ± 0.049 |
| I31G | -0.273 ± 0.063 |
| I31A | -0.174 ± 0.068 |
| I31R | -0.06 ± 0.06 |
| I31F | -0.14 ± 0.16 |
| I31S | -0.182 ± 0.099 |
| I31V | -0.094 ± 0.074 |
| I31W | -0.08 ± 0.067 |

| Variant | abundance fitness |
| --- | --- |
| I31T | -0.011 ± 0.083 |
| I31N | -0.162 ± 0.23 |
| I31P | -0.331 ± 0.23 |
| I31L | -0.375 ± 0.16 |
| I31Y | -0.166 ± 0.1 |
| M17Q | 0.037 ± 0.044 |
| M17V | -0.05 ± 0.024 |
| M17R | -0.279 ± 0.026 |
| M17I | -0.09 ± 0.044 |
| M17P | -0.345 ± 0.037 |
| M17S | -0.102 ± 0.026 |
| M17H | -0.44 ± 0.05 |
| M17T | -0.094 ± 0.037 |
| M17W | -0.369 ± 0.026 |
| M17L | -0.067 ± 0.031 |
| M17K | -0.214 ± 0.047 |
| M17N | -0.582 ± 0.046 |
| M17G | -0.366 ± 0.026 |
| M17Y | -0.264 ± 0.044 |
| I34N | -0.343 ± 0.063 |
| I34Q | -0.158 ± 0.028 |
| I34L | -0.089 ± 0.027 |
| I34V | -0.102 ± 0.031 |
| I34M | -0.15 ± 0.045 |

| Variant | abundance fitness |
| --- | --- |
| I34F | 0.014 ± 0.026 |
| I34H | -0.324 ± 0.059 |
| I34Y | -0.172 ± 0.054 |
| I34E | -0.265 ± 0.028 |
| I34G | -0.634 ± 0.029 |
| I34P | -0.813 ± 0.034 |
| I34K | -0.35 ± 0.067 |
| I34D | -0.454 ± 0.051 |
| I34T | -0.047 ± 0.048 |
| I34C | -0.078 ± 0.035 |
| I34R | -0.223 ± 0.029 |
| I34A | -0.304 ± 0.031 |
| T35I | -0.419 ± 0.05 |
| T35D | -0.728 ± 0.067 |
| T35W | -0.581 ± 0.029 |
| T35H | -0.56 ± 0.039 |
| T35C | -0.236 ± 0.045 |
| T35P | -0.899 ± 0.081 |
| T35K | -0.433 ± 0.056 |
| T35L | -0.7 ± 0.044 |
| T35S | -0.072 ± 0.028 |
| T35Q | -0.675 ± 0.069 |
| T35E | -0.382 ± 0.041 |
